Source: patent US6331664A, “Acyl-ACP thioesterase nucleic acids from maize and methods of altering palmitic acid levels in transgenic plants therewith” (Dow AgroSciences LLC, priority 1998, dated 2001)
Like-named read-outs stand apart in the source and are kept apart here.

Key:
14:0-ACP (Myristate) [1] = target: 14:0-ACP (Myristate)
12:0-ACP (Laurate) [2] = target: 12:0-ACP (Laurate)
18:0-ACP (Stearate) [3] = target: 18:0-ACP (Stearate)
16:0-ACP (Palmitate) [4] = target: 16:0-ACP (Palmitate)
18:1-ACP (Oleate) [5] = target: 18:1-ACP (Oleate)
maize PTE = test: Thioesterase assay, substrate specificity of partially purified maize PTE expressed in E. coli; format: biochemical; settings: for Percent Relative Activity: 10 μM radio-labeled acyl-ACP, 30° C., 5 min, 100% = 2.1 units/mg protein
Experimental: (§1) For enzymatic analysis of E coli expressed maize PTE, substrates were made as follows: ACP (Sigma Chemical Co.) was further purified by three cycles of precipitation at pH 4.0 using 10% (v/v) acetic acid followed by resolubilization in 50 mM Tris-HCl, pH 8.0. Carbon-14 or tritium-labeled fatty acids (lauric, 12:0; myristic, 14:0; palmitic, 16:0; stearic, 18:0; and oleic, 18:1) were obtained from Amersham (Arlington Heights, Ill.) or NEN Research Products. Acyl-ACPs were synthesized and purified according to Rock et al., ((1981) Methods in Enzymology, 72:397-403). Thioesterase assays were conducted according to Ohlrogge et al., ((1978) Arch. Biochem. Biophys. 189:382-391) with slight modifications. A standard reaction contained […] Tris-HCl, pH 8.0, 10 μM radio-labeled acyl-ACP (50-58 μCi/μmol), and enzyme in 50 μL. Reactions were conducted at 30° C. for 5 min and terminated with 200 μL of 10% (v/v) acetic acid. Free fatty acids were extracted twice with 1 mL hexane and the organic phases were combined for liquid scintillation counting. Protein concentrations were determined according to Bradford ((1976) Anal. Biochem. […]:248-254). Linear regressions were used for determination of kinetic constants from double reciprocal plots.

maize OTE [6] = test: Thioesterase assay, substrate specificity and Km of maize OTE purified from kernels; format: biochemical; settings: for Km: double reciprocal plots; for activity relative to that observed with 18:1-ACP: C14-labeled acyl-ACPs
Experimental: as §1
The resolubilized PEG-precipitated material was applied to hydroxyapatite (HA-Ultrogel, Sigma Chemical Co.) which had been previously loaded into a 2.5×20 cm column equilibrated with buffer A. After loading, the column was washed with 300 mL of buffer A and maize OTE activity was eluted with buffer A having 1 M NaCl. Enzymatic activity was followed using C^14 labeled 18:1-ACP as substrate. Production of substrate and biochemical assays were performed as described herein. Fractions having thioesterase activity were pooled and desalted to 20 mM Tris, pH 7.0, 0.4 mM DTT (buffer B) on PD-10 columns (Pharmacia). The desalted fraction was then applied to a MonoQ HR 10/10 column (Pharmacia) and the enzyme was eluted using a linear gradient of 0-0.5 M NaCl in buffer B over 30 min. at a flow rate of 4 mL/min. Fractions were assayed for activity and active fractions were pooled and desalted on PD-10 columns (Pharmacia) equilibrated with buffer A.
The substrate specificity of purified maize OTE was analyzed using several C^14 -labeled acyl-ACPs as described herein. […] Low activities (less than 10% of that observed with 18:1-ACP) were observed when using 12:0-ACP, 14:0-ACP, 16:0-ACP, 18:0-ACP.

maize OTE [7] = test: Thioesterase assay, substrate specificity of maize OTE expressed in E. coli; format: biochemical; settings: for Percent Relative Activity: radio-labeled acyl-ACP, 100% = 2.1 units/mg protein
14:0-ACP (Myristate) [8] = target: 14:0-ACP (Myristate); remark: listed apart in the source
12:0-ACP (Laurate) [9] = target: 12:0-ACP (Laurate); remark: listed apart in the source
18:0-ACP (Stearate) [10] = target: 18:0-ACP (Stearate); remark: listed apart in the source
16:0-ACP (Palmitate) [11] = target: 16:0-ACP (Palmitate); remark: listed apart in the source
18:1-ACP (Oleate) [12] = target: 18:1-ACP (Oleate); remark: listed apart in the source
14:0-ACP (Myristate) [13] = target: 14:0-ACP (Myristate); remark: listed apart in the source
12:0-ACP (Laurate) [14] = target: 12:0-ACP (Laurate); remark: listed apart in the source
18:0-ACP (Stearate) [15] = target: 18:0-ACP (Stearate); remark: listed apart in the source
16:0-ACP (Palmitate) [16] = target: 16:0-ACP (Palmitate); remark: listed apart in the source
18:1-ACP (Oleate) [17] = target: 18:1-ACP (Oleate); remark: listed apart in the source

For “maize oleoyl-ACP thioesterase, native protein from maize kernels and embryos (enzyme)”, the substrate specificity (thioesterase assay with C14-labeled acyl-ACPs) (% of that observed with 18:1-ACP) (14:0-ACP (Myristate) [1]) was < 10, the substrate specificity (thioesterase assay with C14-labeled acyl-ACPs) (% of that observed with 18:1-ACP) (12:0-ACP (Laurate) [2]) was < 10 and the substrate specificity (thioesterase assay with C14-labeled acyl-ACPs) (% of that observed with 18:1-ACP) (18:0-ACP (Stearate) [3]) was < 10. For the same molecule, the Km (16:0-ACP (Palmitate) [4]) was 25 µM, the substrate specificity (thioesterase assay with C14-labeled acyl-ACPs) (% of that observed with 18:1-ACP) (16:0-ACP (Palmitate) [4]) was < 10 and the Km (18:1-ACP (Oleate) [5]) was 0.75 µM.

For “18:1-ACP: radio-labeled oleic acid thioester of acyl carrier protein, thioesterase substrate”, the “Percent Relative Activity” value (maize PTE) was 40.4%, the Km (maize OTE [6]) was 0.75 µM and the “Percent Relative Activity” value (maize OTE [7]) was 100.0%.

With “maize palmitoyl-ACP thioesterase, mature protein expressed in E. coli (pDAB378) (enzyme)” the Percent Relative Activity (thioesterase assay, release of radio-labeled free fatty acid) (% relative activity) (14:0-ACP (Myristate) [8]) was 16, the Percent Relative Activity (thioesterase assay, release of radio-labeled free fatty acid) (% relative activity) (12:0-ACP (Laurate) [9]) was 0 and the Percent Relative Activity (thioesterase assay, release of radio-labeled free fatty acid) (% relative activity) (18:0-ACP (Stearate) [10]) was 61.2. It also gave a Percent Relative Activity (thioesterase assay, release of radio-labeled free fatty acid) (% relative activity) (16:0-ACP (Palmitate) [11]) of 100 and a Percent Relative Activity (thioesterase assay, release of radio-labeled free fatty acid) (% relative activity) (18:1-ACP (Oleate) [12]) of 40.4.

“16:0-ACP: radio-labeled palmitic acid thioester of acyl carrier protein, thioesterase substrate” was tested, and the “Percent Relative Activity” value (maize PTE) was 100.0%, the “activity relative to that observed with 18:1-ACP” value (maize OTE [6]) was “less than 10%” and the Km (maize OTE [6]) was 25 µM. For the same molecule, the “Percent Relative Activity” value (maize OTE [7]) was 14.1%.

In the case of “maize oleoyl-ACP thioesterase, mature protein expressed in E. coli (pDAB371) (enzyme)”, the Percent Relative Activity (thioesterase assay, release of radio-labeled free fatty acid) (% relative activity) (14:0-ACP (Myristate) [13]) is reported as 6.3, the Percent Relative Activity (thioesterase assay, release of radio-labeled free fatty acid) (% relative activity) (12:0-ACP (Laurate) [14]) is reported as 0.7 and the Percent Relative Activity (thioesterase assay, release of radio-labeled free fatty acid) (% relative activity) (18:0-ACP (Stearate) [15]) is reported as 25.2. It also gave a Percent Relative Activity (thioesterase assay, release of radio-labeled free fatty acid) (% relative activity) (16:0-ACP (Palmitate) [16]) of 14.1 and a Percent Relative Activity (thioesterase assay, release of radio-labeled free fatty acid) (% relative activity) (18:1-ACP (Oleate) [17]) of 100.

In the case of “12:0-ACP: radio-labeled lauric acid thioester of acyl carrier protein, thioesterase substrate”, the “Percent Relative Activity” value (maize PTE) is reported as 0.0%, the “activity relative to that observed with 18:1-ACP” value (maize OTE [6]) is reported as “less than 10%” and the “Percent Relative Activity” value (maize OTE [7]) is reported as 0.7%.

For “18:0-ACP: radio-labeled stearic acid thioester of acyl carrier protein, thioesterase substrate”, the “Percent Relative Activity” value (maize PTE) was 61.2%, the “activity relative to that observed with 18:1-ACP” value (maize OTE [6]) was “less than 10%” and the “Percent Relative Activity” value (maize OTE [7]) was 25.2%.

B1: maize PTE: maize palmitoyl-ACP thioesterase, mature protein expressed in E. coli from pDAB378 (protein)
chain: LPDWSMLLAAITTIFLAAEKQWTMLDWKPRRPDMLTDTFGFGRIIHDGLMFRQNFSIRSYEIGADRTASIETLMNHLQETALNHVKTAGLLGDGFGSTPEMSKRNLFWVVSQMQAIIERYPCWGDTVEVDTWVSANGKNGMRRDWHIRDPITGLTILKATSKWVMMNKLTRKLARIPDEVRTEIEPYFFEHSAIVDEDNRKLPKLPEGQSTSVAKYVRTGLTPRWADLDINQHVNNVKYIAWILESAPISILENHELASIVLDYKRECGRDSVLQSHTSVHTDCNSESGETTLHCEHVLSLESGPTMVKARTMWRPKGTKAQETVVPSSI
In the case of B1, the “specific activity equivalent to 100% relative activity” value (maize PTE; unit = cleavage of 1 μmol/h free fatty acid at 30° C., 16:0-ACP) is reported as 2.1 units/mg protein.

B2: maize OTE: maize oleoyl-ACP thioesterase, purified from kernels or expressed in E. coli from pDAB371 (protein)
chain: CARGAPQVSGIEAASPGHAAVTAALAKAEGGDARPSLAERLRLGNLLEDGLSYKESFIVRCYEVGINKTATVETIANLLQEVGCNHAQSVGFSTDGFATTTTMRKLGLIWVTNRMHIEIYKYPAWGDVVEIETWCQEDGRIGTRRDWILKDLANGEVIGRATSKWVMMNQNTRRLQRVSDDVRDEVFMHCPKAPRLAFPEENNGSLKKIPNLSDPAEYSRLGLVPRRADLDMNQHVNNVTYIGWVLESIPQDIIDTHELQTITLDYRRECQQDDIVDSLTCIEEGEEKSMNGSASAAAPHKEERQQFLHCLRFAANGHEINRGRTVWRKLAR
In the case of B2, the “specific activity equivalent to 100% relative activity” value (maize OTE [7]; unit = cleavage of 1 μmol/h free fatty acid at 30° C., 18:1-ACP) is reported as 2.1 units/mg protein.
